A short description of this data set: collision cross section of modified peptide (TIMS, N2, iRT-aligned); higher = larger / more extended gas-phase ion. How it is done: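 1/K0 was aligned run-wise to spiked iRT peptides and converted to CCS in N2 (Mason-Schamp). Values are the mean of 1-3 technical replicates for the most abundant feature at each charge state.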
Where [1] appears, read: charge state: 2, modification: Formyl.
[2] abbreviates: charge state: 3, modification: Formyl.
The mark [3] stands for this setting: charge state: 2, modification: Glutarylation.
The mark [4] stands for this setting: charge state: 3, modification: Glutarylation.
Setting [5] is: charge state: 2, modification: GlyGly (K).
Where [6] appears, read: charge state: 3, modification: GlyGly (K).
Where [7] appears, read: charge state: 2, modification: Malonyl.
[8] abbreviates: charge state: 3, modification: Malonyl.
[9] abbreviates: charge state: 2, modification: Methyl (K).
The mark [10] stands for this setting: charge state: 3, modification: Methyl (K).
[11] abbreviates: charge state: 2, modification: Propionyl.
[12] abbreviates: charge state: 3, modification: Propionyl.
The mark [13] stands for this setting: charge state: 2, modification: Succinyl.
Where [14] appears, read: charge state: 3, modification: Succinyl.
[15] abbreviates: charge state: 3, modification: Trimethyl (K).
Setting [16] is: charge state: 2, modification: hydroxyisobutyryl.
The mark [17] stands for this setting: charge state: 3, modification: hydroxyisobutyryl.
Where [18] appears, read: charge state: 2, modification: Citrullination (R).
The mark [19] stands for this setting: charge state: 2, modification: Methyl (R).
Where [20] appears, read: charge state: 2, modification: Nitro (Y).
[21] abbreviates: charge state: 2, modification: Phospho (Y).
Where [22] appears, read: charge state: 2, modification: Acetyl (K).
Setting [23] is: charge state: 2, modification: Biotin.
Where [24] appears, read: charge state: 3, modification: Biotin.
Where [25] appears, read: charge state: 2, modification: Butyryl.
Where [26] appears, read: charge state: 2, modification: Crotonyl.
Setting [27] is: charge state: 2, modification: Dimethyl (K).
The mark [28] stands for this setting: charge state: 3, modification: Dimethyl (K).
Setting [29] is: charge state: 2, modification: Trimethyl (K).

± gives the standard deviation.

For the sequence AGQKLIDVNHYAK [_AGQK(Formyl)LIDVNHYAK_], the collision cross section runs as follows: under setting [1], 428.61 ± 0.79 Å²; under setting [2], 474.19 ± 2.1 Å².

With “AGQKLIDVNHYAK [_AGQK(Gluratylation)LIDVNHYAK_]”, the collision cross section is, setting by setting: under setting [3], 437.49 ± 0.96 Å²; under setting [4], 489.6 ± 0.95 Å².

For “AGQKLIDVNHYAK [_AGQK(GlyGly (K))LIDVNHYAK_]”, the collision cross section is reported as 433.04 ± 1.4 Å² under setting [5] and 485.98 ± 1.6 Å² under setting [6].

In the case of “AGQKLIDVNHYAK [_AGQK(Malonyl)LIDVNHYAK_]”, the collision cross section is given as 433.55 ± 0.56 Å² under setting [7] and 477.49 ± 1.8 Å² under setting [8].

On to “AGQKLIDVNHYAK [_AGQK(Methyl (K))LIDVNHYAK_]”, for which the collision cross section worked out at 421.24 ± 1.5 Å² under setting [9] and 475.12 ± 2.7 Å² under setting [10].

In turn, “AGQKLIDVNHYAK [_AGQK(Propionyl)LIDVNHYAK_]” displayed a collision cross section under setting [11] of 432.1 ± 1.1 Å² and a collision cross section under setting [12] of 484.45 Å².

Turning to “AGQKLIDVNHYAK [_AGQK(Succinyl)LIDVNHYAK_]”, the collision cross section is 435.59 ± 1.1 Å² under setting [13] and 483.35 ± 2.9 Å² under setting [14].

As for “AGQKLIDVNHYAK [_AGQK(Trimethyl (K))LIDVNHYAK_]”, under setting [15], the collision cross section is listed as 474.3 ± 1.8 Å².

In the case of “AGQKLIDVNHYAK [_AGQK(hydroxyisobutyryl)LIDVNHYAK_]”, the collision cross section amounted to 436.67 ± 0.29 Å² under setting [16] and 483.82 ± 2.8 Å² under setting [17].

Regarding “AGRGFSLEELR [_AGR(Citrullination (R))GFSLEELR_]”, the collision cross section under setting [18] is on record as 372.54 ± 0.24 Å².

For the sequence AGRGFSLEELR [_AGR(Methyl (R))GFSLEELR_], the collision cross section by setting is: under setting [19], 379.24 Å²; (charge state: 3, modification: Methyl (R)) 460.11 ± 2.4 Å².

“AIEINPDSAQPYK [_AIEINPDSAQPY(Nitro (Y))K_]”: the collision cross section under setting [20] worked out at 401.15 ± 0.18 Å².

“AIEINPDSAQPYK [_AIEINPDSAQPY(Phospho (Y))K_]”: the collision cross section under setting [21] is on record as 402.87 ± 0.061 Å².

AIQLNPSYIR [_AIQLNPSY(Nitro (Y))IR_]: under setting [20], the collision cross section is 380.21 ± 0.17 Å².

AIQLNPSYIR [_AIQLNPSY(Phospho (Y))IR_] showed a collision cross section under setting [21] of 384.89 ± 0.65 Å².

“ALASIDSKLNQAK [_ALASIDSK(Acetyl (K))LNQAK_]” yielded a collision cross section under setting [22] of 399.37 ± 2 Å².

Turning to ALASIDSKLNQAK [_ALASIDSK(Biotin)LNQAK_], the collision cross section runs as follows: under setting [23], 417.14 ± 2.9 Å²; under setting [24], 481.19 Å².

“ALASIDSKLNQAK [_ALASIDSK(Butyryl)LNQAK_]” gave a collision cross section under setting [25] of 403.96 ± 0.85 Å².

The sequence “ALASIDSKLNQAK [_ALASIDSK(Crotonyl)LNQAK_]” came in with a collision cross section under setting [26] of 401.19 ± 0.9 Å².

As to “ALASIDSKLNQAK [_ALASIDSK(Dimethyl (K))LNQAK_]”, the collision cross section reads like this: under setting [27], 412.97 ± 1.1 Å²; under setting [28], 457.79 ± 2.1 Å².

ALASIDSKLNQAK [_ALASIDSK(Formyl)LNQAK_] displayed a collision cross section under setting [1] of 395.38 ± 0.55 Å².

Turning to “ALASIDSKLNQAK [_ALASIDSK(Gluratylation)LNQAK_]”, the collision cross section stood at 406.86 ± 0.54 Å² under setting [3] and 470.57 Å² under setting [4].

In turn, “ALASIDSKLNQAK [_ALASIDSK(GlyGly (K))LNQAK_]” displayed a collision cross section under setting [5] of 417.48 ± 0.98 Å² and a collision cross section under setting [6] of 469.2 ± 1.3 Å².

Consider “ALASIDSKLNQAK [_ALASIDSK(Malonyl)LNQAK_]”, for which the collision cross section under setting [7] is 399.65 ± 0.028 Å².

With “ALASIDSKLNQAK [_ALASIDSK(Methyl (K))LNQAK_]”, the collision cross section came out at 411.6 ± 0.9 Å² under setting [9] and 462.35 ± 4.6 Å² under setting [10].

Take “ALASIDSKLNQAK [_ALASIDSK(Propionyl)LNQAK_]”: under setting [11], the collision cross section was 398.32 Å².

Consider “ALASIDSKLNQAK [_ALASIDSK(Succinyl)LNQAK_]”, for which the collision cross section reads like this: under setting [13], 408.18 ± 0.54 Å²; under setting [14], 477.06 Å².

“ALASIDSKLNQAK [_ALASIDSK(Trimethyl (K))LNQAK_]”: the collision cross section reads like this: under setting [29], 417.47 ± 0.6 Å²; under setting [15], 444.8 ± 1.8 Å².

Under setting [16], “ALASIDSKLNQAK [_ALASIDSK(hydroxyisobutyryl)LNQAK_]” came in with a collision cross section of 410.87 ± 9.2 Å².

For the sequence ALLQAKASGK [_ALLQAK(Acetyl (K))ASGK_], the collision cross section under setting [22] is 343.77 ± 0.2 Å².

For ALLQAKASGK [_ALLQAK(Butyryl)ASGK_], the collision cross section under setting [25] came to 352.22 ± 2.3 Å².

Under setting [26], ALLQAKASGK [_ALLQAK(Crotonyl)ASGK_] yielded a collision cross section of 351.6 ± 1.3 Å².

Under setting [27], ALLQAKASGK [_ALLQAK(Dimethyl (K))ASGK_] showed a collision cross section of 351.53 ± 0.51 Å².

Under setting [1], ALLQAKASGK [_ALLQAK(Formyl)ASGK_] returned a collision cross section of 340.27 ± 0.87 Å².

With “ALLQAKASGK [_ALLQAK(Gluratylation)ASGK_]”, the collision cross section under setting [3] is 353.63 ± 0.71 Å².

Under setting [5], ALLQAKASGK [_ALLQAK(GlyGly (K))ASGK_] yielded a collision cross section of 355.61 ± 0.57 Å².

With ALLQAKASGK [_ALLQAK(Methyl (K))ASGK_], the collision cross section by setting is: under setting [9], 342.45 ± 0.79 Å²; under setting [10], 423.28 ± 5 Å².

Regarding ALLQAKASGK [_ALLQAK(Propionyl)ASGK_], the collision cross section under setting [11] is given as 350.75 ± 0.49 Å².

As for ALLQAKASGK [_ALLQAK(Succinyl)ASGK_], under setting [13], the collision cross section was 349.13 ± 0.82 Å².

“ALLQAKASGK [_ALLQAK(Trimethyl (K))ASGK_]” had a collision cross section under setting [29] of 354.6 ± 1.6 Å² and a collision cross section under setting [15] of 406.65 Å².

The sequence “ALLQAKASGK [_ALLQAK(hydroxyisobutyryl)ASGK_]” displayed a collision cross section under setting [16] of 353.14 ± 1.3 Å².

Under setting [20], ALYETELADAR [_ALY(Nitro (Y))ETELADAR_] had a collision cross section of 387.94 ± 0.55 Å².

Sequence “ALYETELADAR [_ALY(Phospho (Y))ETELADAR_]” returned a collision cross section under setting [21] of 383.83 ± 0.063 Å².

On to “ANAIGRGAK [_ANAIGR(Citrullination (R))GAK_]”, for which the collision cross section under setting [18] is reported as 313.03 ± 0.86 Å².

In turn, ANAIGRGAK [_ANAIGR(Methyl (R))GAK_] gave a collision cross section under setting [19] of 322.43 ± 1.8 Å².

As to “ANEKTESSSAQQVAVSR [_ANEK(Acetyl (K))TESSSAQQVAVSR_]”, the collision cross section runs as follows: under setting [22], 433.42 ± 1.8 Å²; (charge state: 3, modification: Acetyl (K)) 527.9 ± 0.37 Å².

Consider “ANEKTESSSAQQVAVSR [_ANEK(Biotin)TESSSAQQVAVSR_]”, for which the collision cross section is 464.95 ± 0.23 Å² under setting [23] and 569.61 ± 0.95 Å² under setting [24].

“ANEKTESSSAQQVAVSR [_ANEK(Butyryl)TESSSAQQVAVSR_]” had a collision cross section under setting [25] of 441.41 ± 1.7 Å² and a collision cross section (charge state: 3, modification: Butyryl) of 534.65 ± 3.5 Å².

As to “ANEKTESSSAQQVAVSR [_ANEK(Crotonyl)TESSSAQQVAVSR_]”, the collision cross section came out at 431.52 ± 7.9 Å² under setting [26] and 536.98 ± 2.1 Å² (charge state: 3, modification: Crotonyl).

“ANEKTESSSAQQVAVSR [_ANEK(Dimethyl (K))TESSSAQQVAVSR_]” had a collision cross section under setting [28] of 490.79 ± 1.6 Å².

For the sequence “ANEKTESSSAQQVAVSR [_ANEK(Formyl)TESSSAQQVAVSR_]”, the collision cross section is reported as 431.82 ± 1.4 Å² under setting [1] and 523.66 ± 4.2 Å² under setting [2].

As for “ANEKTESSSAQQVAVSR [_ANEK(Gluratylation)TESSSAQQVAVSR_]”, the collision cross section came out at 449.31 ± 1.1 Å² under setting [3] and 546.17 ± 2 Å² under setting [4].

Take “ANEKTESSSAQQVAVSR [_ANEK(GlyGly (K))TESSSAQQVAVSR_]”: the collision cross section under setting [5] was 467.32 ± 0.84 Å² and the collision cross section under setting [6] is 498.93 ± 1.1 Å².

As to “ANEKTESSSAQQVAVSR [_ANEK(Malonyl)TESSSAQQVAVSR_]”, the collision cross section reads like this: under setting [7], 438.58 ± 1 Å²; under setting [8], 534.15 ± 1.9 Å².

With “ANEKTESSSAQQVAVSR [_ANEK(Methyl (K))TESSSAQQVAVSR_]”, the collision cross section is listed as 440.42 Å² under setting [9] and 486.23 ± 1.8 Å² under setting [10].

Consider “ANEKTESSSAQQVAVSR [_ANEK(Propionyl)TESSSAQQVAVSR_]”, for which the collision cross section is, setting by setting: under setting [11], 439.84 ± 1.6 Å²; under setting [12], 533.7 Å².

“ANEKTESSSAQQVAVSR [_ANEK(Succinyl)TESSSAQQVAVSR_]”: the collision cross section reads like this: under setting [13], 443.48 ± 0.35 Å²; under setting [14], 533.43 ± 0.35 Å².

With “ANEKTESSSAQQVAVSR [_ANEK(Trimethyl (K))TESSSAQQVAVSR_]”, the collision cross section under setting [15] worked out at 495.46 ± 1.6 Å².

Take “ANEKTESSSAQQVAVSR [_ANEK(hydroxyisobutyryl)TESSSAQQVAVSR_]”: the collision cross section reads like this: under setting [16], 442.41 ± 0.29 Å²; under setting [17], 538.5 ± 0.04 Å².

The record behind these values is the supplement of paper PMC10598134.
